Source: publication PMC2917185

How the values were obtained:
cpSRP43 (mature) = cpSRP43 (mature) (UniProt O22265); experiment: fluorescence polarisation
[1] = target: LHCP (light-harvesting chlorophyll a/b binding protein), fluorescein-labeled (UniProt P07371); experiment: fluorescence polarisation

Substance | Ki (cpSRP43 (mature)) | Kd [1]
L18 peptide | 2200 nM | –
cpSRP43 ΔCD2 (domain or fragment) | – | 530 nM
cpSRP43 ΔCD3 (domain or fragment) | – | 886 nM
